Assay results reported in article PMC9482650, “Quantitative fragmentomics allow affinity mapping of interactomes” (Nature Communications, 2022).

Tests used:
Assay in all cases: holdup assay
Design in all cases: key: below the threshold = too weak to quantify, mostly under pKd 3.1 to 4
GRIP2_3, Q9C0E4 = biological target: GRIP2_3, Q9C0E4
APBA2_1, Q99767 = biological target: T1, APBA2_1, Q99767
T1 sequence (Q99767 563-664, limits assumed, looked up): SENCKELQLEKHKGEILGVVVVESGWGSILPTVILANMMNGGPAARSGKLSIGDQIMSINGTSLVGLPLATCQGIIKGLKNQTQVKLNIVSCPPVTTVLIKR

NHERF3_4, Q5T2W1 = biological target: T2, NHERF3_4, Q5T2W1
T2 sequence (Q5T2W1 373-468, limits assumed, looked up): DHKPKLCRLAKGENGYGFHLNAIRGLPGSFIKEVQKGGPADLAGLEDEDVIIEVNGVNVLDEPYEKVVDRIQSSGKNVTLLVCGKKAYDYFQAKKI

Inadl_2, Q8NI35 = biological target: Inadl_2, Q8NI35
Sequence of Inadl_2, Q8NI35 (Q8NI35 238-335): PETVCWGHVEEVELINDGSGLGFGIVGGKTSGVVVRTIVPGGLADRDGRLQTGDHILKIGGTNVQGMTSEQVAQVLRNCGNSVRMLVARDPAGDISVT

FRMPD4, Q14CM0 = biological target: FRMPD4, Q14CM0
Sequence of FRMPD4, Q14CM0 (Q14CM0 67-160): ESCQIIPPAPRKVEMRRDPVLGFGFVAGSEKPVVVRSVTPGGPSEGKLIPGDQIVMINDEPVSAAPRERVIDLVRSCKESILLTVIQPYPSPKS

MAST2, Q6P0Q8 = biological target: MAST2, Q6P0Q8
Sequence of MAST2, Q6P0Q8 (Q6P0Q8 1099-1202): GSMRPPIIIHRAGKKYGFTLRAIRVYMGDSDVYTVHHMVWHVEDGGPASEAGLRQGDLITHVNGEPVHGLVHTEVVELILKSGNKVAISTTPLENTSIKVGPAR

HTRA4, P83105 = biological target: T3, HTRA4, P83105
T3 sequence (P83105 378-476, limits assumed, looked up): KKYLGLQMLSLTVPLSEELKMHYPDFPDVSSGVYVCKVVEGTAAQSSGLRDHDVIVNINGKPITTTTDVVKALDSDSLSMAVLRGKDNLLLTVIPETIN

SYNJ2BP, P57105 = biological target: T4, SYNJ2BP, P57105
T4 sequence (P57105 8-110, limits assumed, looked up): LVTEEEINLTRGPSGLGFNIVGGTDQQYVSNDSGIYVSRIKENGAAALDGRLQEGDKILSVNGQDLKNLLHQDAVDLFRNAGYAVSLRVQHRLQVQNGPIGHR

GRASP, Q7Z6J2 = biological target: GRASP, Q7Z6J2
Sequence of GRASP, Q7Z6J2 (Q7Z6J2 96-193): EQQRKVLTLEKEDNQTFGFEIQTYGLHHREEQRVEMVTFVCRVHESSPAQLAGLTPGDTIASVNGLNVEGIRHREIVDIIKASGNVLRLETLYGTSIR

DVL3, Q92997 = biological target: T5, DVL3, Q92997
T5 sequence (Q92997 244-331, limits assumed, looked up): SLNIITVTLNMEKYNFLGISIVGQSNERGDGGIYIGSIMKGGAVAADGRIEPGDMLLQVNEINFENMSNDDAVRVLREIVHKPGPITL

DFNB31_3, Q9P202 = biological target: T6, DFNB31_3, Q9P202
T6 sequence (Q9P202 811-907, limits assumed, looked up): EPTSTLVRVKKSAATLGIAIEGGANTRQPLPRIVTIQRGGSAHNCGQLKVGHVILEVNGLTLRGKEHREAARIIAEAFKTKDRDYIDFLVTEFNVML

MAGI3_2, Q5TCQ9 = biological target: MAGI3_2, Q5TCQ9
Sequence of MAGI3_2, Q5TCQ9 (Q5TCQ9 398-503): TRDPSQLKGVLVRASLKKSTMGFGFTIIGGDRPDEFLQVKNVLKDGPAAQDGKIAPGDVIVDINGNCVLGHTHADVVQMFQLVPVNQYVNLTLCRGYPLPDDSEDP

PDZD7_3, Q9H5P4 = biological target: T7, PDZD7_3, Q9H5P4
T7 sequence (Q9H5P4 857-944, limits assumed, looked up): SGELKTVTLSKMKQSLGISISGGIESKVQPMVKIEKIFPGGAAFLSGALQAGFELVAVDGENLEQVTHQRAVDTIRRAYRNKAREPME

TJP2_1, Q9UDY2 = biological target: TJP2_1, Q9UDY2
Sequence of TJP2_1, Q9UDY2 (Q9UDY2 24-128): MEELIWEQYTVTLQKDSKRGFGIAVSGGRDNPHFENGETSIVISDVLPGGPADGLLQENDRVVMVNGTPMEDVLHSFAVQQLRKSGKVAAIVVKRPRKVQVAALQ

SNX27, Q96L92 = biological target: SNX27, Q96L92
PDLIM1, O00151 = biological target: PDLIM1, O00151
Sequence of PDLIM1, O00151 (O00151 1-87): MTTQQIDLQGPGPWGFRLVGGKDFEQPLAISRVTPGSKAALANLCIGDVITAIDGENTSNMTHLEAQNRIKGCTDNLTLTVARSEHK

SIPA1L2, Q9P2F8 = biological target: T8, SIPA1L2, Q9P2F8
T8 sequence (Q9P2F8 945-1036, limits assumed, looked up): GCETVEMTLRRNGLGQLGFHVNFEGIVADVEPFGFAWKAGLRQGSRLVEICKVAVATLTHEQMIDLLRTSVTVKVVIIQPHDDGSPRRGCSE

APBA1_1, Q02410 = biological target: T9, APBA1_1, Q02410
T9 sequence (Q02410 651-752, limits assumed, looked up): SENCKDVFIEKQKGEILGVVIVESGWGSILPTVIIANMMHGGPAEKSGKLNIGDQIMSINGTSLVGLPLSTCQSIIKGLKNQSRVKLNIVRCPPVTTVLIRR

MPDZ_10, O75970 = biological target: T10, MPDZ_10, O75970
T10 sequence (O75970 1624-1722, limits assumed, looked up): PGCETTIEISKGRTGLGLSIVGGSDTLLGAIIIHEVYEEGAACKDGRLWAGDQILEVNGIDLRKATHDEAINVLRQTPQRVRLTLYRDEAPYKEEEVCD

GRIP2_7, Q9C0E4 = biological target: GRIP2_7, Q9C0E4
Sequence of GRIP2_7, Q9C0E4 (Q9C0E4 934-1023): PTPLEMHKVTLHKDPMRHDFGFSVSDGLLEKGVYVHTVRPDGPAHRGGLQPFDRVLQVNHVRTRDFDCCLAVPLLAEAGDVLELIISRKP

APBA2_2, Q99767 = biological target: T11, APBA2_2, Q99767
T11 sequence (Q99767 654-744, limits assumed, looked up): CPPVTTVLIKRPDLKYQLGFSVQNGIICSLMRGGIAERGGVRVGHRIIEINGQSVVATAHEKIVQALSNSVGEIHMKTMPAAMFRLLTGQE

MAGI2_4, Q86UL8 = biological target: MAGI2_4, Q86UL8
Sequence of MAGI2_4, Q86UL8 (Q86UL8 772-865): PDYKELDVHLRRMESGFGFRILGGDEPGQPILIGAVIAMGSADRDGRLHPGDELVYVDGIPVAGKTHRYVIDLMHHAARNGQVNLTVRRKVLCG

APBA3_1, O96018 = biological target: T12, APBA3_1, O96018
T12 sequence (O96018 389-490, limits assumed, looked up): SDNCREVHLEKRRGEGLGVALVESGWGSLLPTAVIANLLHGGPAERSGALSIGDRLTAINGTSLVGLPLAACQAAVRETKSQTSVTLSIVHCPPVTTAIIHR

LIN7B, Q9HAP6 = biological target: T13, LIN7B, Q9HAP6
T13 sequence (Q9HAP6 88-185, limits assumed, looked up): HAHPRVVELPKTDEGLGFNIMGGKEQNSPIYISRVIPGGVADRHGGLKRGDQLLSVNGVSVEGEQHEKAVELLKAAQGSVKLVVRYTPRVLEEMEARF

[1] = plain residues with an end cap or a label only (N-terminal biotin on a linker: ado-ado)
[2] = modified: phospho on T at position -2 from the C-terminal residue

Sequence of GRIP2_3, Q9C0E4 (Q9C0E4 238-339): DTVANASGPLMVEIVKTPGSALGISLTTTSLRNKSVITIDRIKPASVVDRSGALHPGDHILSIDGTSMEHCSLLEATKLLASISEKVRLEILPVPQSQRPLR

GQEEQVTTRL [TRPC5, Q9UL62]
pKd (GRIP2_3, Q9C0E4; [1]): below the threshold
pKd (APBA2_1, Q99767; [1]): below the threshold
pKd (NHERF3_4, Q5T2W1; [1]): 5.33
pKd (Inadl_2, Q8NI35; [1]): below the threshold
pKd (FRMPD4, Q14CM0; [1]): 4.29
pKd (MAST2, Q6P0Q8; [1]): 5.62
pKd (HTRA4, P83105; [1]): below the threshold
pKd (SYNJ2BP, P57105; [1]): below the threshold
pKd (GRASP, Q7Z6J2; [1]): 4.63
pKd (DVL3, Q92997; [1]): below the threshold
pKd (DFNB31_3, Q9P202; [1]): 3.8
pKd (MAGI3_2, Q5TCQ9; [1]): below the threshold
pKd (PDZD7_3, Q9H5P4; [1]): 4.89
pKd (TJP2_1, Q9UDY2; [1]): below the threshold
pKd (SNX27, Q96L92; [1]): 5.47
pKd (PDLIM1, O00151; [1]): below the threshold
pKd (SIPA1L2, Q9P2F8; [1]): below the threshold
pKd (APBA1_1, Q02410; [1]): below the threshold
pKd (MPDZ_10, O75970; [1]): below the threshold
pKd (GRIP2_7, Q9C0E4; [1]): below the threshold
pKd (APBA2_2, Q99767; [1]): below the threshold
pKd (MAGI2_4, Q86UL8; [1]): below the threshold
pKd (APBA3_1, O96018; [1]): below the threshold
pKd (LIN7B, Q9HAP6; [1]): below the threshold

RLQRRRETQV [HPV18-E6_-2P, P06463]
pKd (GRIP2_3, Q9C0E4; [2]): below the threshold
pKd (APBA2_1, Q99767; [2]): below the threshold
pKd (NHERF3_4, Q5T2W1; [2]): below the threshold
pKd (Inadl_2, Q8NI35; [2]): below the threshold
pKd (FRMPD4, Q14CM0; [2]): below the threshold
pKd (MAST2, Q6P0Q8; [2]): below the threshold
pKd (HTRA4, P83105; [2]): below the threshold
pKd (SYNJ2BP, P57105; [2]): below the threshold
pKd (GRASP, Q7Z6J2; [2]): below the threshold
pKd (DVL3, Q92997; [2]): below the threshold
pKd (DFNB31_3, Q9P202; [2]): 3.9
pKd (MAGI3_2, Q5TCQ9; [2]): below the threshold
pKd (PDZD7_3, Q9H5P4; [2]): below the threshold
pKd (TJP2_1, Q9UDY2; [2]): below the threshold
pKd (SNX27, Q96L92; [2]): 3.61
pKd (PDLIM1, O00151; [2]): below the threshold
pKd (SIPA1L2, Q9P2F8; [2]): below the threshold
pKd (APBA1_1, Q02410; [2]): below the threshold
pKd (MPDZ_10, O75970; [2]): below the threshold
pKd (GRIP2_7, Q9C0E4; [2]): below the threshold
pKd (APBA2_2, Q99767; [2]): below the threshold
pKd (MAGI2_4, Q86UL8; [2]): below the threshold
pKd (APBA3_1, O96018; [2]): below the threshold
pKd (LIN7B, Q9HAP6; [2]): below the threshold

QPCFNKLFPL [LPXN, O60711]
pKd (GRIP2_3, Q9C0E4; [1]): below the threshold
pKd (APBA2_1, Q99767; [1]): below the threshold
pKd (NHERF3_4, Q5T2W1; [1]): 3.73
pKd (Inadl_2, Q8NI35; [1]): below the threshold
pKd (FRMPD4, Q14CM0; [1]): 4.64
pKd (MAST2, Q6P0Q8; [1]): 4.75
pKd (HTRA4, P83105; [1]): 3.95
pKd (SYNJ2BP, P57105; [1]): below the threshold
pKd (GRASP, Q7Z6J2; [1]): below the threshold
pKd (DVL3, Q92997; [1]): below the threshold
pKd (DFNB31_3, Q9P202; [1]): below the threshold
pKd (MAGI3_2, Q5TCQ9; [1]): below the threshold
pKd (PDZD7_3, Q9H5P4; [1]): below the threshold
pKd (TJP2_1, Q9UDY2; [1]): below the threshold
pKd (SNX27, Q96L92; [1]): 3.75
pKd (PDLIM1, O00151; [1]): below the threshold
pKd (SIPA1L2, Q9P2F8; [1]): below the threshold
pKd (APBA1_1, Q02410; [1]): below the threshold
pKd (MPDZ_10, O75970; [1]): below the threshold
pKd (GRIP2_7, Q9C0E4; [1]): 3.69
pKd (APBA2_2, Q99767; [1]): below the threshold
pKd (MAGI2_4, Q86UL8; [1]): below the threshold
pKd (APBA3_1, O96018; [1]): below the threshold
pKd (LIN7B, Q9HAP6; [1]): below the threshold
